Values of other authors as cited in publication PMC2854253.
pKd: −log10 of the molar value.

Target: cTnI147-163 (Homo sapiens)
Test: NMR titration

In the case of cNTnC 1-89 (from UniProt P63316), the pKd is given as 3.81.
